Consider 1 substance from patent publication EP2546652A1.

Assay [1] addresses nervous necrosis virus (NNV) particles (nervous necrosis virus (from grouper)). Nature of the assay: immunomagnetic reduction (IMR), anti-NNV magnetic nanoparticles mixed with NNV solution; value at 5 TCID50/ml NNV.
Assay [2] has the same target. Nature of the assay: immunomagnetic reduction (IMR), anti-NNV magnetic nanoparticles mixed with NNV solution; value at 10^7 TCID50/ml NNV.
Assay [3] shares this target. Nature of the assay: immunomagnetic reduction (IMR), logistic fit of IMR (%) against NNV concentration.

“nervous necrosis virus antibody (anti-nervous necrosis virus), covalently bound to the dextran shell of Fe3O4 magnetic nanoparticles” displayed an IMR signal in assay [1] of 0.84%. This substance also displayed an IMR signal in assay [2] of 3.04%. In assay [3], this substance had a B (high-end value of the IMR signal, logistic fit) of 3.47% and a φo (fitting parameter of the logistic function of IMR signal against NNV concentration) of 26700 TCID50/ml.
